Drawing on patent publication EP1007666B1, this text covers Kd and survival of E14 rat spinal motoneurons for one substance.

Assay [1] addresses recombinant soluble rat GDNFRα (rat) (UniProt Q62997). Nature of the assay: displacement of labelled rGDNF from soluble GDNFRα by 10 nM unlabeled NTN.
The target of assay [2] is rat NTNRα, endogenous on embryonic rat spinal motoneurons (rat). Nature of the assay: cell-based or functional assay.
Assay [3] has as its target recombinant soluble rat GDNFRα (rat) (UniProt Q62997). The assay can be described thus: binding experiments with biotinylated ligand, format not described.

Chain of recombinant soluble rat GDNFRα (rat) (Q62997 25-430 limits assumed): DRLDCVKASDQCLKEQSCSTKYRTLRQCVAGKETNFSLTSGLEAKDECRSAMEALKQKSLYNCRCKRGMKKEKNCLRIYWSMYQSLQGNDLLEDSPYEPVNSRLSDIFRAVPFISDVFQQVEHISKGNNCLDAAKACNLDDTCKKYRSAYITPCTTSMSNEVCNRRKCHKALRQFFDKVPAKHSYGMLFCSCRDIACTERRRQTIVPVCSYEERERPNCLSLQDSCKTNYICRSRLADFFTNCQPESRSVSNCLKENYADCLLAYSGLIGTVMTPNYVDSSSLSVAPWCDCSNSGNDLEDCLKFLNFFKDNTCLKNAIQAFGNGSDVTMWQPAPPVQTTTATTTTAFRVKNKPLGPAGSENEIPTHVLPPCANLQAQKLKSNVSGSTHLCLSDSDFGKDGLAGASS

As to “Neurturin (NTN), species not stated at these places (ligand)”, the figures for the Kd in assay [1] and in assay [3] were 0.001 µM and more than 1000 µM, respectively. The survival of E14 rat spinal motoneurons at 72 hours in assay [2] is 50%.
